Data taken from patent US20200338219A1 (ACTINIUM PHARMACEUTICALS, published 2020).

Key:
[1] = target: T1, human CD45 protein, wild-type (WT) construct expressed on HEK-293T cells (human, UniProt P08575 26-1306); test: high-throughput flow cytometry on HEK-293T cells expressing WT CD45 against vector alone, 5.00 µg/ml
T1 construct: also called target protein (WT); PTPRC
T1 sequence: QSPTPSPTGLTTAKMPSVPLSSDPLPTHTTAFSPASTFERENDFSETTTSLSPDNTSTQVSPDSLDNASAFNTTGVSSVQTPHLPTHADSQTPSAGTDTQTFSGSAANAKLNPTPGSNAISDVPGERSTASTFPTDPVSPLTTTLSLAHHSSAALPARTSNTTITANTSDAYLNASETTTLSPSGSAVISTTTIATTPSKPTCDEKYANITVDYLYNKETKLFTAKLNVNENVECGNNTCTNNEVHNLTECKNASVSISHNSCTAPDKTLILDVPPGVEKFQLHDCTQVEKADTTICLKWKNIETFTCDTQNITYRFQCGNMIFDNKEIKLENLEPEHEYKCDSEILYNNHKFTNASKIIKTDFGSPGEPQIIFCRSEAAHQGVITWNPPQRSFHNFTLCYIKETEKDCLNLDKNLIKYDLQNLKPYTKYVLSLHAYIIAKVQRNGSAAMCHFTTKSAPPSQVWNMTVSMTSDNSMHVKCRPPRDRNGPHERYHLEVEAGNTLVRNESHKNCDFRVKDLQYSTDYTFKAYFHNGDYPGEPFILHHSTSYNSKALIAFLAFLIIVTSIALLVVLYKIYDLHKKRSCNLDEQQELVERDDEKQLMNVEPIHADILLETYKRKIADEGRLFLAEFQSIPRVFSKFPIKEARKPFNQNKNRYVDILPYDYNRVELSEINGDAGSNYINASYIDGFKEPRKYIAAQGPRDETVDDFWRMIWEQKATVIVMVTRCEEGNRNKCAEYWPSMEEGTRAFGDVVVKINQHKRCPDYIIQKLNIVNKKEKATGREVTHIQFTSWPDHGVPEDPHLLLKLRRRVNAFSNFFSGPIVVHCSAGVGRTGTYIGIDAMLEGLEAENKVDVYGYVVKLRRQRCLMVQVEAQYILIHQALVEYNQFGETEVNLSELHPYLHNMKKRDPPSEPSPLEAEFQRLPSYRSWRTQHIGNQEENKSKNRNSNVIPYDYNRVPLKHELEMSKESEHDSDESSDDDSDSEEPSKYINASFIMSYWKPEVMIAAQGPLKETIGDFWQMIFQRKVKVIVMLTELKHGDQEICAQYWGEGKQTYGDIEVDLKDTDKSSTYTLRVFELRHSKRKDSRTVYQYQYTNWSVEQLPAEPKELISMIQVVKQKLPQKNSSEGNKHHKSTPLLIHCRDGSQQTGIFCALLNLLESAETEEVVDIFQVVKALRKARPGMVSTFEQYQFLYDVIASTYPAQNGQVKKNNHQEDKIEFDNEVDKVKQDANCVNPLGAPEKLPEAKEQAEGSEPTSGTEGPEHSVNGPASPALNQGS
Experimental: (§1) Cells were transfected with a wild-type (WT) construct of the target protein or with vector alone in 384-well format, followed by detection of cellular expression via high-throughput flow cytometry. Serial dilutions of each MAb were tested for immunoreactivity against cells expressing target protein (WT) or vector alone.

[2] = target: T1, human CD45 protein, wild-type (WT) …; test: high-throughput flow cytometry on HEK-293T cells expressing WT CD45 against vector alone, 5.0 ug/ml
Experimental: as §1

B1: murine anti-CD45 monoclonal antibody BC8 (antibody, mouse IgG1, kappa, V domains shown)
VH: EVKLLESGGGLVQPGGSLKLSCAASGFDFSRYWMSWVRQAPGKGLEWIGEINPTSSTINFTPSLKDKVFISRDNAKNTLYLQMSKVRSEDTALYYCARGNYYRYGDAMDYWGQGTSVTVSS
VL: DIALTQSPASLAVSLGQRATISCRASKSVSTSGYSYLHWYQQKPGQPPKLLIYLASNLESGVPARFSGSGSGTDFTLNIHPVEEEDAATYYCQHSRELPFTFGSGTKLEIKR
modifications: position 141 is found to be a mixture of ASP and ASN in the purified protein (deamidation of ASN-141)
notes: Purified from hybridoma ATCC HB-10507; also called BC8 MAb; anti-CD45 immunoglobulin BC8
In the case of B1, the “Signal:Background” value [1] is reported as 9 signal:background ratio.

B2: BC8 Fab (Fab, V domains shown)
VH: B1 VH
VL: B1 VL
notes: It was detected with an anti-mouse F(ab')2 secondary antibody; also called Test Fab
For B2, the “Signal:Background” value [2] was 6 signal:background ratio.
